This note sets out measurements from patent publication US20210063414A1, “METHODS FOR PREVENTING AND/OR TREATING BONE LOSS CONDITIONS BY MODULATING IRISIN” (Dana-Farber Cancer Institute, Inc., priority 2018, published 2021).

The target of the test is T1, MLO-Y4 cell surface proteins (Mus musculus, UniProt P70388).
T1 construct: endogenous in cells; host or cells: MLO-Y4
T1 sequence (P70388 1-1312): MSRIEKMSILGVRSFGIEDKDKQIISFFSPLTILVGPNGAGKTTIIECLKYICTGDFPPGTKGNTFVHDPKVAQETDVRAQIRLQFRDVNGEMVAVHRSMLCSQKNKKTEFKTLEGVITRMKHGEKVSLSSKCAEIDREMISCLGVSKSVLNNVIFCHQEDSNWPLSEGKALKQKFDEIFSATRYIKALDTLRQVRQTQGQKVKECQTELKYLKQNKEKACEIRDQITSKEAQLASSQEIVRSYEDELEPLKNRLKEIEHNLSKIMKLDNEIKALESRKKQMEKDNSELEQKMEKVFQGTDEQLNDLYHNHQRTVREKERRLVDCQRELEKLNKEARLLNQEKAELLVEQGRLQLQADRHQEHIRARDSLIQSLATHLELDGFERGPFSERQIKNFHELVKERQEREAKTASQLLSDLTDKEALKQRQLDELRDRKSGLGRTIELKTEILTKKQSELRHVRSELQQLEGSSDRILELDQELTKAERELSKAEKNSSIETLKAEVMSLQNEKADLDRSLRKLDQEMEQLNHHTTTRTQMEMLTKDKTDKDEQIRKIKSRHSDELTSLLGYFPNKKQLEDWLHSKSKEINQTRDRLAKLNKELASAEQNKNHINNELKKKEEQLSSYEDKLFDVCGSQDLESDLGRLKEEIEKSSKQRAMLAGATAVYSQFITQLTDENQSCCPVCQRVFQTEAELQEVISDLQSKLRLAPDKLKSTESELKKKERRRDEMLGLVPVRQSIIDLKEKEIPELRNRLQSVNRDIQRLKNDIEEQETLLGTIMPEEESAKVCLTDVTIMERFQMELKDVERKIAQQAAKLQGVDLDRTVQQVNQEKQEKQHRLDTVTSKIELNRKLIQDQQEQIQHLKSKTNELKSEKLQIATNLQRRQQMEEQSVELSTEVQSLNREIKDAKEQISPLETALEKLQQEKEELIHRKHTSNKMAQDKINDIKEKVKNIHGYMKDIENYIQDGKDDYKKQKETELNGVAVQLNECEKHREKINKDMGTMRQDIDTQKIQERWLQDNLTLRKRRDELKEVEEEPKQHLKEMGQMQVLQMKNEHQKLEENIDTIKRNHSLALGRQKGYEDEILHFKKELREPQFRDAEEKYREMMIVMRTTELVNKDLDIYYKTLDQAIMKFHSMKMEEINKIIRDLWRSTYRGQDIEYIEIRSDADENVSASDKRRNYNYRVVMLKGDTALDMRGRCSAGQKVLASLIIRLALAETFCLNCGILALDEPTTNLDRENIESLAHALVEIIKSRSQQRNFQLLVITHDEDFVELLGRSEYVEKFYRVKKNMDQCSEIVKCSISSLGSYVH
Put plainly: Crosslinking/co-immunoprecipitation/mass spectrometry (TMT quantitative proteomics) to identify irisin receptors. The settings on record: co-precipitated protein Rad50 (RAD50_MOUSE). Format: binding. The method, boiled down:
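Relative protein abundance came from 6-plex TMT MS3 quantitation on an Orbitrap Fusion Lumos, after in-gel trypsin digestion of Coomassie-stained SDS-PAGE lanes. Input was a Ni-NTA pulldown (250 mM imidazole elution) of lysates from murine MLO-Y4 cells. These cells were treated on ice with His-tagged irisin or adipsin (10 nM, 20 min) in serum-free medium, then crosslinked with 1.5 mM DTSSP for 30 min.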

B1: irisin: secreted cleaved form of FNDC5; recombinant human/mouse irisin with C-terminal his tag produced in HEK293 cells (protein)
chain: DSPSAPVNVTVRHLKANSAVVSWDVLEDEVVIGFAISQQKKDVRMLRFIQEVNTTTRSCALWDLEEDTEYIVHVQAISIQGQSPASEPVLFKTPREAEKMASKNKDEVTMKE
modifications: left off: small tags and cut ends
notes: secreted cleaved form of FNDC5; recombinant human/mouse irisin with C-terminal his tag produced in HEK293 cells
Turning to B1, the TMT signal-to-noise ratio was determined as 10.8209 and the “irisin/adipsin TMT signal-to-noise ratio” value is reported as 0.026.
